{"source": "paper PMC8894135", "test_in_all_cases": "cryo-EM structure; single particle analysis of extended AlgoCIS particles assembled in A. machipongonensis and purified whole, in buffer B (20 mM Tris pH 7.5, 150 mM NaCl); cap 2.5 Å, extended sheath-tube 2.4 Å, baseplate 2.7-2.9 Å, whole particle 4.4 Å", "key": {"[1]": {"molecular_target": "Alg6 (plug protein of AlgoCIS) (Algoriphagus machipongonensis PR1 (endogenous in A. machipongonensis))"}, "[2]": {"molecular_target": "Alg8 (central spike protein of AlgoCIS) (Algoriphagus machipongonensis PR1 (endogenous in A. machipongonensis))"}, "[3]": {"molecular_target": "Alg16A (cap protein of AlgoCIS) (Algoriphagus machipongonensis PR1 (endogenous in A. machipongonensis))"}, "[4]": {"molecular_target": "Alg1 (inner tube protein of AlgoCIS) (Algoriphagus machipongonensis PR1 (endogenous in A. machipongonensis))"}, "[5]": {"molecular_target": "Alg11 (baseplate wedge protein of AlgoCIS, forms the spike cage) (Algoriphagus machipongonensis PR1 (endogenous in A. machipongonensis))"}, "[6]": {"molecular_target": "Alg16B (cap adaptor protein of AlgoCIS) (Algoriphagus machipongonensis PR1 (endogenous in A. machipongonensis))"}}}
{"substance": "Alg6 (plug protein of AlgoCIS) (natural protein)", "values": [{"measurement": "stoichiometry N", "setting": "[1]", "value": 3}]}
{"substance": "Alg8 (central spike protein of AlgoCIS) (natural protein)", "values": [{"measurement": "stoichiometry N", "setting": "[2]", "value": 3}]}
{"substance": "Alg16A (cap protein of AlgoCIS) (natural protein)", "values": [{"measurement": "stoichiometry N", "setting": "[3]", "value": 6}]}
{"substance": "Alg1 (inner tube protein of AlgoCIS) (natural protein)", "values": [{"measurement": "stoichiometry N", "setting": "[4]", "value": 6}]}
{"substance": "Alg11 (baseplate wedge protein of AlgoCIS, forms the spike cage) (natural protein)", "values": [{"measurement": "stoichiometry N", "setting": "[5]", "value": 6}]}
{"substance": "Alg16B (cap adaptor protein of AlgoCIS) (natural protein)", "values": [{"measurement": "stoichiometry N", "setting": "[6]", "value": 6}]}
